Results on five substances are retold here after patent US20200024330A1.

Holding throughout (assay): cell-based or functional assay
Assay [1] has as its target HIV-1 94UG103 envelope protein (Env) on pseudotyped virus (HIV-1 isolate 94UG103).
Assay [2] deals with HIV-1 APV-6 envelope glycoprotein (Env) on pseudovirus (HIV-1).
Assay [3] has as its target HIV-1 93IN905 envelope protein (Env) on pseudotyped virus (HIV-1 isolate 93IN905).
Assay [4] deals with HIV-1 JR-CSF envelope protein (Env) on pseudotyped virus (HIV-1 isolate JR-CSF) (UniProt P20871).
Assay [5] deals with HIV-1 Env of isolate MGRM-A-007 (HIV-1).
Assay [6] concerns the target HIV-1 MGRM-C-026 envelope glycoprotein (Env) (HIV-1).
The target in assay [7] is HIV-1 Env of isolate MGRM-F1-012 (HIV-1).
Assay [8] concerns the target HIV-1 JRCSF envelope glycoprotein (Env) (HIV-1) (UniProt P20871).
In assay [9] the target is HIV-1 Env of isolate MGRM-D-026 (HIV-1).
In assay [10] the target is HIV-1 Env of isolate MGRM-A-013 (HIV-1).
Assay [11] has as its target HIV-1 Env of isolate 94KE105 (HIV-1).
Assay [12] has as its target HIV-1 Env of isolate MGRM-A-009 (HIV-1).
The target of assay [13] is HIV-1 Env of isolate MGRM-F1-010 (HIV-1).
Assay [14] addresses HIV-1 Env of isolate MGRM-A-012 (HIV-1).
Assay [15] concerns the target HIV-1 Env of isolate MGRM-A-010 (HIV-1).
Assay [16] has as its target HIV-1 Env of isolate MGRM-A-014 (HIV-1).
Assay [17] has as its target HIV-1 93IN905 envelope glycoprotein (Env) (HIV-1).
The target in assay [18] is HIV-1 NL43 envelope glycoprotein (Env) (HIV-1).
Assay [19] deals with HIV-1 Env of isolate MGRM-A-006 (HIV-1).
The target of assay [20] is HIV-1 Env of isolate MGRM-A-008 (HIV-1).
Assay [21] deals with HIV-1 Env of isolate MGRM-A-004 (HIV-1).

1443_C16 (PG16) (TCN-116) (antibody), sequence (VH): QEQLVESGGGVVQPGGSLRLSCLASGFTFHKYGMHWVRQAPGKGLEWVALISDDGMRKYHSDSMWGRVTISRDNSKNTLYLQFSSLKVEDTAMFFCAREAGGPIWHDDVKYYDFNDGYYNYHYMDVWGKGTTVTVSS
1443_C16 (PG16) (TCN-116) (antibody), sequence (VL): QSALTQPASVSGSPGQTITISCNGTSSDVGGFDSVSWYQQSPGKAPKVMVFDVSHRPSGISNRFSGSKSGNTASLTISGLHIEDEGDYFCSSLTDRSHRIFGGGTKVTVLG

In the case of 1443_C16 (PG16) (TCN-116) (antibody), the IC50, pseudovirus neutralization, 1 hour Virus/Ab Incubation in assay [1] was 0.0211 µg/mL; in assay [3], 0.33 µg/mL; in assay [4], under 0.0025 µg/mL. Further, the IC50, pseudovirus neutralization, 18 hour Virus/Ab Incubation was 0.0085 µg/mL in assay [1], 0.255 µg/mL in [3] and under 0.0025 µg/mL in [4]. This substance displayed an IC90 (pseudovirus neutralization) in assay [2] of 44.3 µg/mL.

For 1496_C09 (PG9) (TCN-109) (antibody), the half-maximal inhibitory concentration (IC50) (commonly the concentration needed to halve the response being measured) in assay [5] was determined as 1.06 µg/mL; in assay [12], 0.023 µg/mL. The IC50 neutralization in [6] turned out to be 0.113 µg/mL; in [8] it was 0.0048 µg/mL; in [17], 0.048 µg/mL; in assay [18], 0.687 µg/mL. The IC50 (µg/mL), pseudovirus neutralization came to 0.023 µg/mL in assay [7]; 23.7 µg/mL in [9]; 0.122 µg/mL in [10]; 37.9 µg/mL in assay [11]; 0.012 µg/mL in [13]; 19.3 µg/mL in assay [14]. In addition, the IC50 (µg/mL), pseudovirus neutralization in assay [15] was found to be 0.022 µg/mL; in [16], 1.25 µg/mL. The IC50, pseudovirus neutralization, 1 hour Virus/Ab Incubation in assay [1] is 0.334 µg/mL; in assay [3], 0.144 µg/mL; in assay [4], under 0.0025 µg/mL. For the same substance, the IC50, pseudovirus neutralization, 18 hour Virus/Ab Incubation was 0.0942 µg/mL in assay [1], 0.0619 µg/mL in assay [3] and under 0.0025 µg/mL in [4]. In assay [2], this substance returned an IC90 (pseudovirus neutralization) of 1.96 µg/mL.

Consider PGT-121 (antibody), for which the IC50 (µg/mL), pseudovirus neutralization in assay [5] was over 50 µg/mL; in assay [19], 0.396 µg/mL; in [10], 0.387 µg/mL; in assay [20], over 50 µg/mL; in [11], 0.029 µg/mL; in assay [12] it was 0.006 µg/mL. Besides, the IC50 (µg/mL), pseudovirus neutralization in assay [21] was over 50 µg/mL; in [14], 0.092 µg/mL; in assay [15], 2.44 µg/mL; in [16], 0.003 µg/mL. Further, the IC50 neutralization was 0.0034 µg/mL in assay [6], 0.0343 µg/mL in assay [8], 0.0082 µg/mL in assay [17] and over 10 µg/mL in [18].

On to PGT-122 (antibody), for which the IC50 (µg/mL), pseudovirus neutralization in assay [5] is over 50 µg/mL; in [19], over 50 µg/mL; in [10], 2.47 µg/mL; in assay [20], over 50 µg/mL; in assay [11], 0.056 µg/mL; in [12], 0.012 µg/mL. The IC50 (µg/mL), pseudovirus neutralization in [21] is over 50 µg/mL; in assay [14] it was 0.257 µg/mL; in assay [15] it was 2.51 µg/mL; in assay [16], 0.007 µg/mL. In addition, the IC50 neutralization in assay [6] is 0.0089 µg/mL; in assay [8] it was 0.0727 µg/mL; in [17], 0.0138 µg/mL; in assay [18], over 10 µg/mL.

In the case of PGV04 (antibody), the IC50 came out at 7.21 µg/mL in assay [5]; 0.244 µg/mL in assay [19]; 0.555 µg/mL in assay [20]; 0.033 µg/mL in [12]; 0.175 µg/mL in assay [21]. For the same substance, the IC50 (µg/mL), pseudovirus neutralization worked out at 0.25 µg/mL in assay [7]; 1.76 µg/mL in assay [9]; 0.086 µg/mL in [10]; 2.98 µg/mL in [11]; 0.184 µg/mL in assay [13]; 0.225 µg/mL in assay [14]. The IC50 (µg/mL), pseudovirus neutralization in assay [15] worked out at 0.205 µg/mL; in assay [16] it was 0.172 µg/mL.
